In article PMC8287531 (The Journal of Cell Biology, 2021):
Each block holds one binder with its values, some of them ahead of it.

What was measured:
[1] = molecular target: T1, talin R7R8 rod domains (UniProt Q9Y490 1359-1659); experiment: fluorescence polarisation; serial dilution of protein against 100 nM fluorescein- or BODIPY-TMR-coupled peptide; 20°C; one-site total binding equation; triplicate; settings: both partners purified
T1 construct: Talin R7R8 rod domains; the construct used in the assays is not described in the methods
T1 sequence (Q9Y490 1359-1659): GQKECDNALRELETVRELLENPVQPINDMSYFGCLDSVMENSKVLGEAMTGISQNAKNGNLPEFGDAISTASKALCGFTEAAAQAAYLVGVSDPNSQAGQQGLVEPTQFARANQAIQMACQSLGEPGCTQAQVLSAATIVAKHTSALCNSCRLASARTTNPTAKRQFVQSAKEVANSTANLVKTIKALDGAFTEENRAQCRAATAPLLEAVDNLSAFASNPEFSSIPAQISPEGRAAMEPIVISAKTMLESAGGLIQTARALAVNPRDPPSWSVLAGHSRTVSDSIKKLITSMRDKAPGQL

[2] = molecular target: T2, TLNRD1 four-helix domain (TLNRD1-4H, residues 143-273) (human, UniProt Q9H1K6 143-273); experiment: as above; settings: both partners purified
T2 construct: Human TLNRD1 four-helix domain, residues 143-273, sub-cloned into pET151; Density was traced for residues 148-270 in PDB 6XZ3; also called 4H domain
T2 sequence (Q9H1K6 143-273): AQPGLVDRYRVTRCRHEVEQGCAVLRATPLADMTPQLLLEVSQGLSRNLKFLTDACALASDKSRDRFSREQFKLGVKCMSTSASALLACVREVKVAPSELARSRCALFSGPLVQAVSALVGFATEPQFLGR

- Kd [1]: 0.35 µM
B1: KANK1(30-60) peptide, KN domain LD motif, BODIPY-labeled (peptide)
peptide: PYFVETPYGFQLDLDFVKYVDDIQKGNTIKKC
modifications: BODIPY-labeled
notes: KANK1 KN domain LD motif, residues 30-60; added C-terminal cysteine residue; also called KANK1 KN domain LD motif (residues 30-60); source: synthetic peptide (GLBiochem, Shanghai)

- Kd [2]: 9 µM
B2: lamellipodin(20-46) peptide (peptide)
peptide: EDQDLDKMFGAWLGELDRLTQSLDSDKC
modifications: coupled with either a fluorescein or BODIPY-TMR dye (which one is not stated for this peptide)
notes: Lamellipodin residues 20-46; added C-terminal cysteine residue; source: synthetic peptide (GLBiochem, Shanghai)
